Data on 15 sequences can be found in the supplement of paper PMC12455559.

This data set can be described thus: purified protein yield per well (BCA); higher = higher soluble expression. In short, it runs like this: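 Purified protein yield per well is reported, as measured by the Pierce Rapid Gold BCA kit. The enzymes came from E. coli C41(DE3) autoinduction cultures of 2 mL with 100 µg/mL kanamycin, held at 37 °C for 2 h and 18 °C for 40 h, then lysed and purified on Ni-charged magnetic beads with SUMO protease release. The detection threshold is 25 ug (0.1 mg/mL), and lower values are under it.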
Turning to “QARDVTAGNPYQRGPDPTVAMIEARTGPFATASASVPAGYGFNGGMVYYPTDTSLGTWGALAIVPGYSALFANEEAWMGPWLASFGFVVIGVETTTRTDSADARGTELLSALNYLTTQSPVRDRVDPNRLSVLGHSAGGAGAMLAAQRQPTLKAAVGLAPGSPVGNLSLATDTVPTMVIGGQNDSVVTPSYLSGLYATMPASTQSAFAQIAGADHVYYTRPNNVETKLLIPWLKTFLDNDTRYVPFLCPAPPDPSSLSMYVPKCPYVPGGSGPGGGGNTGALHAVGAAKCLAAPSSGTPGTQLTIGTCDGQARQTWTRTATDQLTVTTAGATLCLDASGQGGSPGTKAIVWSCNGQANQHWNVNSNGTVTSAQSGLCLDVTGGSTAEGAPVELWTCNGGGNQQWHLG [TEP085]”, the “purified protein yield per well” value was less than 25 µg.

Consider “GAAGNPYERGPDPTESSIEAPRGHYAVSETSVSALGVTGFGGGTIYYPTSTADGTFGAVAIAPGYTSLQSSIAWLGPRLASQGFVVITIDTRTTLDQPAGRGAQLLAALDYLTRRSSVRNRIDSGRLGVMGHSMGGGGSLEAAKGRPSLQAAIPLTGWNLDKTWPEIRVPTLLVGADGDTIAPVATHSQPFYQSLPSTLDRAYLELNNATHFTPNRPDTTIAKYSVSWLKRFIDNDTRYEQFLCPLPRPSRTIEEYRGNCPHTS [TEP007]”, for which the “purified protein yield per well” value was less than 25 µg.

Turning to “CASVASPPAATLAALSGNGSYEVMTYTDFPDVPEFGDATIYYPQDAPAPVGGVAIAPGFTEVQSHISWWGPRLASHGFAVLVLDTNDRRDRPDLRADALIAAVTLLRAENSRSGSPLNSRIDVGKMAIMGHSMGGGGVLLAANEHSDQIQAAIPFTPWVPDVEFGNITVPTLVIAGSADRIANVTDHAWRHF [TEP113]”, the “purified protein yield per well” value is less than 25 µg.

As to “ASLSIGGEYQVLTYTDFPDVPEFGDATIYYPLETPGTVGGVAIAPGFTERQSHIEWWGPRLASHGFAVLVLDTNERRAMPDARGDALLAAVEVLRRESAREGSPLFGRVATDKMAIMGHSMGGGGALLAANEHSDQIQAAIPFTPWEPQAVFQDITVPTLVLAGSVDRLARVDNHAWRHYQSIPESTPKAYLEVGGGNHYIADTERGTDLETI [TEP137]”, the “purified protein yield per well” value was less than 25 µg.

In the case of “QTTAPTSASLNASAGPLSVSTASVTAPRGFGGGTIYYPTTQARYGVIAISPGFTATQTSIAWLGRRIATHGFVVITLNTLTTLDQPDSRANQLMAALNHVINSSSSAVKARIDTSRLAVAGHSMGGGGALIAARDNPSLKASYPLTPWNINSAFSTVRVPTMIVGADGDTVAPVGTHARPFYAALPGATSKAYGELNGATHFSPNSTNTPIGRYGVAWMKRFLDGDTRYSTFLCGTEHTRYATALVFDRYNQNCPY [ESM122]”, the “purified protein yield per well” value was less than 25 µg.

As for “QTTAPTSASLNATAGPLSVSTASVSLPRGFGGGTIYYPTTQARYGVIAISPGFTATETSIAWLGRRIATHGFVVITLNTLTTLDQPASRANQLMAALSYVVNSSTSAVKARIDTTRLAVAGHSMGGGGALIAARDNPTLKASYPLTPWNSSTSFSTVRVPTMIIGADGDTIAPVAAHARPFYASLPGATTKAYGELNGGTHFSPNSTNTPIGRYGVAWMKRFVDGDTRYSTFLCGTEHTRYASALVFDRYNQNCPY [ESM124]”, the “purified protein yield per well” value is less than 25 µg.

With “ASPYERGPDPSRTSIEARRGPFAVTSTSVSDLSTPGFGSATITYPTSTAEGTYGAVAVSPGFTASESTIAWLGPRLASQGFVVITFNTQSRLDQPAARGDQLLAALDYLTQRSSTTIRSRIDPTRLAVIGHSMGGGGTLEAAKDRPSLQATVGLTPWNLDKSWPEIRTPSLVIGAESDTVAPVGSHAVPFYQSIPSSTAKAYLELNNASHFAPNTENTTIASSTISWLKLYVDDDDRYRQFLCPGPQSSVTGSVSDYRNTCTS [DP050]”, the “purified protein yield per well” value was less than 25 µg.

Regarding “MCHISAPVPPRAPGCPQFAHWLEVRAVLGSNGAFPTSGRTGADPSGARGTGGRWRRGVAALSTAAVLGALTVVGAVQSASGADNPYQRGPDPTASYVSGSRGSFATAQVSVPAGNGFGGGVIYHPTDTTQGTFGAIAVVPGYTATWAAEGAWMGHWLASFGFVVIGIDTNGREDWDTARGTQLLAALDYLTQRSSVRDRVDASRTAVMGHSMGGGGAMYAALQRPSLKTTVGLAPFSPSQNLTNLRVPAMLLSGQNDTTTTPSSIVNLYNGIPAATEKAYLELSGVGHSFPTSSNPTMMRNVIPWLKIFIDSDTRYTQFLCPLSNSNGIRSYQNTCPLVPSSVPTTSSTTTSTSTTTTTTTTTTTTTTTSVPVGACSASFRTTNTWPGGYQGEVTVTAGSSAVNGWTVQWTLDSGQSISQVWNGTLSVSGSAVSVRNVSYNGSLPPNASATFGFIGGGSPSTSPFTCTSP [ESM077]”, the “purified protein yield per well” value is less than 25 µg.

Take “LQMQSLINIGPLQISEINESMGLRNGTDYNGATIYYPINQNNLSSIVLVPGFMNTELTIQNWGPFFASHGIITMTIGTNSLTDTHVQRRDALFDAIISLKQENQRIASPLFGKLDTSSIAVGGFSKGGGGAQLLAKFDPSLKAVVALYPWLENVTASDLEHTVPLIIISGQLDAIAPPFLHADIQYNLTPMTTKKLKYEVAFASHDAISGPYAGNGEVGARVLSWLNTFLVTDSCYCPLLLEQPITSSSYTTNIVCSNLFTNIYESNKSYSKEIIEIRDLYGRKVKFSNSRILIYIYNDGSYEKKITL [TEP016]”: the “purified protein yield per well” value is less than 25 µg.

“WLTSAASPVRARVDANRLGVGGHSMGGGGAIEAASEMPSLKASIGFEPWNGIGSWPGVRVPTMIQGAQNDNIAPVAQHSEPFYNSMTNAPEKAYAEFTGASHFFSGQAGPATTRLSVSWYKRFLDNDTRYDQFLCPGPRSPEVVEYRNTCPLTTPGGGGGTTTTTGPGTTTTTRPTTTTTAPPAQCQWWEWWCWLGWG [TEP046]”: the “purified protein yield per well” value is less than 25 µg.

Turning to “AAPVHHAVTRPVAAHHPVTRPVPRPVVAHAPQPPAVDQIVVPATADARFGGGTIFAPRGAGQKVLGSVVVTPGFHGRKSDMAVYGTELAAEGFVVFTIDTRDRADLPDQRATEMLAAADYLTGRSAVKGEVSPDRVALLGYSMGGGGTLQAAQERPSIKAALTLMPYDYPPAGDPKAVHPAYPELTVPTLIITGQKDATAIPAKFGKPAYDSIPAGTPKQYLQLTGLGHAAGMGKPTATIRAAITAFLERYLDGDTAYAKDICPAPKVGGPISASTSSCGTS [ESM119]”, the “purified protein yield per well” value was less than 25 µg.

Turning to “RPSAENPYERGPAPTVASIEAARGPFGTAETRVSATAVRGFGGGTIYYPTDTSQGTFGAVAVAPGFTASQSSMSWLGPRLASQGFVIFTIDTLGRYDQPAARGDQLLAALDYLTQSSSVRGRIDGSRLAVMGHSMGGGGSLEAAKDRPALQAAIPLTPWNATKNWSSVRTPTLIIGAERDSVASVAAHSEPFYASLPSTLDRAYLELAGASHFAPNVANVTIAKYSISWLKRFVDNDTRYEQFLCPLPSGSAISEYRGNCPHQG [TEP152]”, the “purified protein yield per well” value was less than 25 µg.

In the case of “VQIGPAPTSAALNKDGSFSVSSSSVSMLSARGFGSGTIYYPSTSGQYGVIAVCPGFTGTSSSISWFARRLASHGFVTIAMNTTTTLDQPASRATQLAAALKYVLNSSSSTVRSRIRAADRGVAGHSMGGGGTLIASQSDSTLRVGIPMTPWNLSTNFSSVKVPQMIFGADGDTIAPYASHARPFYNSLSKAPKAYGLLKSATHFTPNATDQRIGRYGVAFAKRFVDGDTRYSPFLCGSEHNSYATSSKFATYLSNCPY [ESM148]”, the “purified protein yield per well” value was less than 25 µg.

In the case of “QTSAPTSASLNASSGPLSVSTASVTLPRGFGGGTIYYPTVAAKYGVIAISPGFTATQSSIAWLGRRIATHGFVVITINTNTTLDQPDSRATQLVAALNHVLNSSGTAVRSRIDPARLAVAGHSMGGGGSLIAARDNPTLKASYPMTPWNISSNFSTVRVPTMIIGADGDTVAPVGTHARPFYASLPSSTFKAYGELNGATHFAPNTTSTPIGRYAVAWMKRFVDGDTRYSPFLCGAQHTSYATGLVFDRYNQNCPY [ESM054]”, the “purified protein yield per well” value is less than 25 µg.

On to “QSNPYQRGPNPTRAALMTDGPYAVATASVWPYIYGFGGGTIYYPTGTTETFGGIAVSPGFTADSTSLAWFGRRLASHGFVVIVINTNSRFDFPDSRASQLQAAIDYLRTNSPAAVRARLDENRIAVAGHSMGGGASLRASERLPWLKASVPLTPWHTDKTFSTSVPQLIIGAEWDTIAPVSSHAIPFYNNLPSSTPKVYLELNNATHFAPNTTNATISLYAISWMKRWVDNDTRYNQFLCGVNHTADPSISDYRTNAWTYCP [DP073]”, for which the “purified protein yield per well” value is less than 25 µg.
